Test results: publication PMC12711061, “Far-infrared irradiation attenuates vessel contraction by activating SERCA2 through disruption of SERCA2 and PLN interaction” (PLOS One, 2025)

Molecular target: sarcoendoplasmic reticulum Ca2+-ATPase 2 (SERCA2), endogenous in rat VSMCs (rat (endogenous in rat aortic VSMCs), UniProt P11507 1-1043)
Experiment: cell-based or functional assay

Sequence of sarcoendoplasmic reticulum Ca2+-ATPase 2 (SERCA2), endogenous in rat VSMCs (P11507 whole entry): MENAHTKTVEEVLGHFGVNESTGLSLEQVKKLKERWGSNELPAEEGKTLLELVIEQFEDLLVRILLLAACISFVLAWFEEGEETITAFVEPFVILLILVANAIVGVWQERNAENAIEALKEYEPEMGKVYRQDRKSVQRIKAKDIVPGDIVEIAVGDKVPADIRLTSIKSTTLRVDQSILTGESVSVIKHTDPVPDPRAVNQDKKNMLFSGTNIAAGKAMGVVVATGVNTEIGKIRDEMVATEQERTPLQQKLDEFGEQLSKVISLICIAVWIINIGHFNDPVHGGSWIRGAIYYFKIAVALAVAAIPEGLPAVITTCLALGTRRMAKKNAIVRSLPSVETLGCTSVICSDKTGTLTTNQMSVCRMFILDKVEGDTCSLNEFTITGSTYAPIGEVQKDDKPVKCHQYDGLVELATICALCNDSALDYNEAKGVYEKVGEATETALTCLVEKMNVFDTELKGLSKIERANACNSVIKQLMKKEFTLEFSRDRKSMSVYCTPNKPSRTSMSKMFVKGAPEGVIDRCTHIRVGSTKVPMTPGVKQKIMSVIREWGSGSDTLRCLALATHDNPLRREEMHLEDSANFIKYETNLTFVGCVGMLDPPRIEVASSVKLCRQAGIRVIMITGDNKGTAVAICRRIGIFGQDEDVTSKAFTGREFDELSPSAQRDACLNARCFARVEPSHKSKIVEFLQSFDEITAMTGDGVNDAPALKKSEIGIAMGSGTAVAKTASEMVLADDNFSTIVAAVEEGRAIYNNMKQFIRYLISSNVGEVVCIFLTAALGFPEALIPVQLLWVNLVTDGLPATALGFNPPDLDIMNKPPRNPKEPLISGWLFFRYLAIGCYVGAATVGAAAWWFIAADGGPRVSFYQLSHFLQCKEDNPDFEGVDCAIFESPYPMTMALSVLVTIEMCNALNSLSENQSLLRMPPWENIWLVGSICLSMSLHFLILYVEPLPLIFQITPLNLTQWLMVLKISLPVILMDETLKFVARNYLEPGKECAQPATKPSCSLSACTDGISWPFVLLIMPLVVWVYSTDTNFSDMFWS

Ca2+-dependent SERCA activity in VSMC lysate (enzyme-coupled spectrophotometric assay), FIR irradiation for 30 min against the RT control: 4.5 fold
B1: phospholamban (PLN), endogenous in rat VSMCs (natural protein, rat (endogenous in rat aortic VSMCs), UniProt P61016 1-52, looked up)
chain: MEKVQYLTRSAIRRASTIEMPQQARQNLQNLFINFCLILICLLLICIIVMLL
